The target in this assay is T1, DET1-DET2-spacer-ek-src SH2 (human src SH2 domain fusion protein) (human).
T1 construct: In the assay it was captured on Protein-G Sepharose through MAB178.1; also called cloned human Src SH2 domain
T1 chain: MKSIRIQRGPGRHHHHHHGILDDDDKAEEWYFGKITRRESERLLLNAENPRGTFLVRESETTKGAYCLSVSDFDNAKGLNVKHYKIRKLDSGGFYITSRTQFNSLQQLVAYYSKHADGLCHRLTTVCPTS
Put plainly: ELISA-based filter plate competition assay; SH2 fusion captured by MAB178.1, displacement of 0.1 uM biotinylated pY peptide (SEQ ID NO: 13). (In general: In an ELISA, binding on a coated surface is turned into a signal by an enzyme label.)

[ ]: non-standard residue; d: D form.

B1: (S)-alpha-(acetylamino)-1,3-dihydro-3-hydroxy-1-oxo-5-isobenzofuranpropanamido-glutamate-glutamate-isoleucine-glutamate-amine (peptide)
peptide: Ac-[(S)‑2‑amino‑3‑(1,3-dihydro-3-hydroxy-1-oxo-isobenzofuran-5-yl)propanoic acid]EEIE-NH2
notes: Synthetic modified pentapeptide; also called Compound 1
For orientation: IC50 means the concentration that gives 50% inhibition. A higher IC50 goes with lower potency. Molecule B1 returned an IC50 of 250 nM.
